The source of these data is PMC4500170.

In the series the test system is Cc1cc(O)cc2c(C(=O)O)c(O)ccc12. The experiment in a line: purified protein. Particulars: 2.5 mM SAM, 100 mM phosphate pH 6.5, 25 °C, 10 μM enzyme.

For “NcsB1 (Streptomyces carzinostaticus; R11A)”, the Michaelis-Menten constant (Km) was found to be 419 ± 61 µM and the turnover number (kcat) is 0.0207 ± 0.001 s⁻¹.

With “NcsB1 (Streptomyces carzinostaticus; R11K)”, the Km is 319 ± 40 µM and the kcat is 0.0197 ± 0.000833 s⁻¹.

In the case of “NcsB1 (Streptomyces carzinostaticus; R11W)”, the Km is 400 ± 68 µM and the kcat is 0.01 ± 0.0005 s⁻¹.

Turning to “NcsB1 (Streptomyces carzinostaticus; Y293I)”, the Km is 649 ± 9 µM and the kcat came to 0.0127 ± 0.000667 s⁻¹.
